Results reported in the RNAGym collection of RNA variant scans (doi:10.1073/pnas.2313332121).
Variants at the floor of the assay were thinned out.

B1: TPR 5TU (parent)
chain: GGAUCUUCUCGAUCUAACAAAAAAGACAAAUCUGCCACAAAGCUUGAGAGCAUCUUCGGAUGCAGAGGCGGCAGCCUUCGGUGGCGCGAUAGCGCCAACGUUCUCAACUAUGACACGCAAAACGCGUGCUCCGUUGAAUGGAGUUUAUCAUG

Variants of: B1
Assay: polymerase ribozyme fitness, log enrichment relative to wild type (log ratio); higher = more active; in vitro selection for triplet polymerase activity
Procedure, shortened: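 Input and output libraries were sequenced on Illumina after a single in vitro selection round, run in triplicate on PCR-built, transcribed mutant libraries of each subunit of a heterodimeric triplet polymerase ribozyme. Selection annealed libraries to a biotinylated primer, the partner subunit and triplets, incubated them frozen at −7 °C, then gel-excised extended constructs for streptavidin-bead capture and RT-PCR. Genotypes with ≥10 input reads and ≥1 read per output were kept. Fitness is the logarithm, taken in base 2, of genotype enrichment divided by wild-type enrichment, using inverse-variance-weighted replicate averages.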

| Variant | polymerase ribozyme fitness (log ratio) |
| --- | --- |
| C43G U55A U61G G86A A89G A122U | ≤ -4.2 |
| C36G C87G A91C A98U C114U A119U A122G | ≤ -4.2 |
| C18U G42A A73U C95U A98U C103G | ≤ -4.2 |
| U53A C54U U55A A60U U77G C85U G92A G112A A121U | ≤ -4.2 |
| C35U U127G | -4.01 |
| C36U G92C C116U C118U U144C | ≤ -4.2 |
| C38U A106U U145C | -1.24 |
| U56A U82G | 0.243 |
| G25U A39U U55A U102C U109G C114U A120U A122G U144G | ≤ -4.2 |
| U33G U61A | -3.72 |
| C14G A30G G46C C95U | -4.17 |
| G11U C14G G34U G84U G141U | ≤ -4.2 |
| U45G A47U A49C U61A C76A C87A U146G | ≤ -4.2 |
| U56A C96U C116U G143A | -3.36 |
| A37G G94A | -1.49 |
| A20G A52G G58U C87U | -0.805 |
| A12C C38U C54U C76U U77G G84A U127A A138U | ≤ -4.2 |
| G48A A113G A147G G152C | ≤ -4.2 |
| U45G C69A | -1.95 |
| A39U G59C G83U | -2.72 |
| A52C A64G C85U U145G | ≤ -4.2 |
| A23G G84U | -3.88 |
| A47C C93A A107G G140U | ≤ -4.2 |
| C14A A49G C54U G71A U77C G86U G143A | ≤ -4.2 |

| Variant | polymerase ribozyme fitness (log ratio) |
| --- | --- |
| A19U C95U | -0.543 |
| A52U U139G U144C | -1.12 |
| C27U C75A G81A G92A U135A | ≤ -4.2 |
| C27U C99G G133U G141A C149G | ≤ -4.2 |
| C54U U56A G81A C95A U101C | -1.35 |
| C116A | 1.34 |
| U4G C27U A97U | -2.22 |
| G42A G92A C96U A98G U151G | ≤ -4.2 |
| A89U C93G A147U | -2.7 |
| C14U C54U C87A A89G C96U A121U A142C | ≤ -4.2 |
| A52U C95A C103G C116G G133U | ≤ -4.2 |
| U55A C57U C87G C125A | ≤ -4.2 |
| C57G G84A C103U A110G | -3.52 |
| U4C C10U A20C A29U A52C A138C G140U | ≤ -4.2 |
| G11U G48C C79A C93G A119G G141U | ≤ -4.2 |
| C87U G117C U144A | -1.27 |
| C85U G94C | -0.28 |
| A52C C57U G81C | -1.59 |
| C76A A91G | -3.83 |
| C69A G70A | -4.19 |
| C32G C36U A64U C96U A107C G117U U134C A150C | ≤ -4.2 |
| A89U A91U | ≤ -4.2 |
| A28U A60C C87A C96U | ≤ -4.2 |
| U9G U15C C87G A113G A142G | ≤ -4.2 |

| Variant | polymerase ribozyme fitness (log ratio) |
| --- | --- |
| U15G A39G U53A | -4.01 |
| A52U G59A A98G C131U | -1.78 |
| U53G A113C G133A | ≤ -4.2 |
| A24U A41G C69A C99G | -2.54 |
| G50A C96U G141U | -0.125 |
| A17C C36U G68C G86A U139A | ≤ -4.2 |
| G84A G133C G143U | -3.92 |
| G62A C69U G92C | -3.74 |
| A17U C18A C54U U55G C75U C95A | -1.89 |
| U53G C96G U144C | -3.23 |
| A23U C38A U45G G50C U56A C93G G117A | ≤ -4.2 |
| C32U C75U G88A A115C | ≤ -4.2 |
| C51U U55A C76A U90C C96G G100A U101G | ≤ -4.2 |
| A40G U82G | -1.38 |
| U6C A16G A24U C96A C118U | -3.92 |
| G84U C123A | -1.79 |
| C51A U55G A60G C93U | -2.7 |
| U55A G58U G83C G124C C132G | ≤ -4.2 |
| G50U A52G C75A C85A G92C G126U G128A A147U | ≤ -4.2 |
| A3U U145C | -0.205 |
| G59U G94A A98G | -1.07 |
| U56A G117C | -0.369 |
| G46U C93U | -0.878 |
| A22G A39C U56A G80U | ≤ -4.2 |

| Variant | polymerase ribozyme fitness (log ratio) |
| --- | --- |
| U13G C36U A47U G84A A122G A138U | ≤ -4.2 |
| C85U U146G U148C | -2.24 |
| A3C A52C U55A C57A G81A G94C | -4.03 |
| U6G A22U C85A | -0.601 |
| U13G C85U C96U G100A A115C | ≤ -4.2 |
| G71C C95U C132U G141A U146G | ≤ -4.2 |
| C35A G94A | -3.56 |
| C43U G46C G83U | ≤ -4.2 |
| U4G A20C C43U U55A G59U A60G C87A A121G G141C | ≤ -4.2 |
| U13G C35U C72U C96G C105U G133C | ≤ -4.2 |
| C79A C103G C131A | ≤ -4.2 |
| C27A A37U A91C | -4.17 |
| C51A G140C | -4.19 |
| U55G C85G C132U | -2.9 |
| A26U C51U C114U C129U | ≤ -4.2 |
| G59U G68A G83A A89U G94U G128U | ≤ -4.2 |
| A30G G42U A52C C57A C96A A120G | ≤ -4.2 |
| U4G C8U U56A G84A | -1.05 |
| C10A A16U U33A A121U G141C | -4.19 |
| A3U A73G G86U C129A A137G | ≤ -4.2 |
| U4A A26G A49C A107G | ≤ -4.2 |
| C18G C57A U134G U145A | -3.18 |
| A12G A21U C27A G48C A49C C51A G84A C129A | ≤ -4.2 |
| U55A A60C | -4.18 |

| Variant | polymerase ribozyme fitness (log ratio) |
| --- | --- |
| U55A C69G | -3.05 |
| G59U G67C G136A | ≤ -4.2 |
| C76U U82G G83A C105A U134C U146A U148G | ≤ -4.2 |
| A30U U56G G84A C96U A113C C125U U134A A142U | ≤ -4.2 |
| U15A G25C A29C G48C A64U C93U C95A C149A | ≤ -4.2 |
| C87U A115U | -1.73 |
| C96A U148A | -3.15 |
| U45A C72U | ≤ -4.2 |
| C38U A49C C85U G92U C103A U111C U144C | ≤ -4.2 |
| U13G A21U A22C U82G G92U A98C C116U | -1.59 |
| A26C G92C | -2.71 |
| A24C U53C C118U A142C | ≤ -4.2 |
| A16G G83U A107U A142C | ≤ -4.2 |
| A12U U102G | -3.28 |
| G67U | -2.55 |
| G48U G59A C93U | -1.39 |
| U101G G136A | 0.652 |
| A21G C114U | -1.69 |
| C85G A119U | -3.69 |
| G48C G50U G59U U82A G92C | -3.41 |
| C51U C95U | -1.69 |
| G48A C72G | ≤ -4.2 |
| A3G C27U U55A U90C G94U C114G C116A | ≤ -4.2 |
| U45G G59A | -0.523 |

| Variant | polymerase ribozyme fitness (log ratio) |
| --- | --- |
| A28U A49U U139G | ≤ -4.2 |
| U7A C79G G94C C114A C118G | ≤ -4.2 |
| C76A G86U | -1.75 |
| A20G A107G C116G A122G G124A G128C | ≤ -4.2 |
| A52U U82G U135G A150U | -2.62 |
| A41C A120U | -0.45 |
| A20C U55G C57U A120C | -0.73 |
| U33A G80A | -3.68 |
| G58A A66C G74C C131G G136U | ≤ -4.2 |
| C5A U7C C18G U55A G58A A89C | -1.54 |
| U31G C57U G83C C87A | ≤ -4.2 |
| C93G C105A A107G G141U | ≤ -4.2 |
| G48C G141A | -3.64 |
| A40C C125A | -0.0259 |
| U55A G128A | -4.18 |
| G59C A107U G143U | ≤ -4.2 |
| G50U C96G | -0.544 |
| U33C G68A | -3.97 |
| C32G C85G U90G C118A G133U G140C C149G | ≤ -4.2 |
| C57A A89G C95U A119U A120U C125U | -1.54 |
| C51U C93A A150U | -0.998 |
| G58A G81A | -0.536 |
| U4C C35G C96U | ≤ -4.2 |
| A30U C35U G141U | ≤ -4.2 |

| Variant | polymerase ribozyme fitness (log ratio) |
| --- | --- |
| A17U C32A A37U A41U | ≤ -4.2 |
| A21U A26U A28U G67A G88A A122U | ≤ -4.2 |
| C116U U130C | 1.13 |
| C8U A12G A28U G74A G81A C99U | -4.18 |
| A28G | -2.24 |
| C5G A12C A40U G58C G83U C118G | -3.96 |
| A12C A21U U53A G59C A60G G84A | -0.862 |
| G34U U77G C87A A113C | ≤ -4.2 |
| G42C A47C U53A U82C G84A A122G A138U G143C | ≤ -4.2 |
| C76U G81A C99U | -0.44 |
| A47G U56A U90C G92U U139C | ≤ -4.2 |
| U9A C14A A23U A30C C36A C95U A110U | ≤ -4.2 |
| A40G A47C C57U C85A A115U A119C A122G U144A | ≤ -4.2 |
| G94C U104G | -1.24 |
| C72G C108U A137C | ≤ -4.2 |
| A3G U4A U53C G59U U61A G71C C85A | ≤ -4.2 |
| U7G G83A A91U C131U | -3.4 |
| C32G A52C U61A G62C C63A C75U C93U | -4.14 |
| U4A G25U C35U C87A C93G | ≤ -4.2 |
| U6G G86U G152U | -4.12 |
| C32G C96U C116G G141U | ≤ -4.2 |
| G34A C57G G117A U144A | -3.39 |
| A17U G100A A120C A150U | ≤ -4.2 |
